Source: the RNAGym collection of RNA variant scans (doi:10.1073/pnas.2313332121)

B1: TPR t1 (parent)
chain: GACCAAUCUGCCCUCAGAGCUCGAGAACAUCUUCGGAUGCAGAGGAGGCAGGCUUCGGUGGCGCGAUAGCGCCAACGUCCUCAACCUCCAAUGCAUCCCACCACAUGAUGAUGCCUGAAGAGCCUUGGUUUUUUG

Variants of: B1
Test: polymerase ribozyme fitness, log enrichment relative to wild type (log ratio); higher = more active; in vitro selection for triplet polymerase activity
In short: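 Mutant libraries were PCR-built and transcribed for each subunit of a heterodimeric triplet polymerase ribozyme and selected for one round in triplicate at −7 °C, frozen, before gel excision of extended constructs and streptavidin-bead capture. Input and output libraries were Illumina-sequenced, keeping genotypes with ≥10 input reads and ≥1 read per output. Fitness is a logarithmic ratio of genotype to wild-type enrichment, in base 2, using inverse-variance-weighted replicate averages.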

Variant | polymerase ribozyme fitness (log ratio)
A46C G63C G93A U116A G120U G135U | -4.76
G45A G48U C49A C53U G69C C115G | -4.6
A46G G58A A83C G107U A121C | -4.18
G45C C101A U106C | -2.07
A46C G120A U126A | -0.908
A46G C79A A91U A105U C124A U125A | -6.73
G45C G47A C79G | -5.96
G45A A100U | -2.26
G45U G52U U54C G58C G60C | -0.884
A46G A121U U126A | 0.577
G45U U129G U132A | -3.85
A46C G63U | -2.01
G45C C73A U81A C88G | -0.576
G45A C73G C85A | -2.3
A46C G128C | -3.42
G45U U54C U132C | -1.01
G45A G52C G57U | -2.04
G45A G61C | -1.97
G45C G77U | -1.32
G45U C94U | -1.46
G45U C94A | -1.66

Variant | polymerase ribozyme fitness (log ratio)
A46C G69C U81C U112G | -4.07
G45C C56U | -1.86
G45C C56A | -1.46
A46G C53A G127C | -1.2
G45U C64A A111U U133A | -5.34
A46C G77U A100C | -2.17
G45U C73G | -0.942
G45U C73U | -1.98
G45U A50U | -2.62
G45C A84G | -1.49
G45U U81A | -3.03
G45A U59C C86A | -3.96
G45A G71U G120A U133A | -0.0049
G45A U59G C62G | -3.84
G45U C123A | -0.805
G45U C123G | -0.391
A46C G69A | -2.87
G45A C102A G122A | -3.14
A46C C53U U54G G120U | -0.194
A46G C97U C114G | -4.73
G45A U67A C102A G120A | -6.86

Variant | polymerase ribozyme fitness (log ratio)
G45C A74G A75U G77C C88U G135C | -1.28
G45A G51A C72U | -3.6
G45U C70A C85A A90U | -6.19
G45U C49U C115G | -3.11
A46C G61A C80A | -3.96
G45C U78C C124A | 0.349
G45A A83C A84U A100G G122U C123G | -5.96
A46C G47U | -5.94
A46C A50U G71U | -1.86
G45C A75G U96A G113C | -2.91
G45U C49G C53U C88G | -0.226
A46C C53A G60U C102U | -3.11
G45C G60C A84G | -2.3
A46G C104A G113A | -2.84
G45U C89U U96A C114U C124G | -2.49
G45U C102A | -3.34
A46C C53A A95C G128C | -3.03
G45A G113A | -1.71
G45A G113U | -2.04
G45A G69A U109G A118C | -6.05
A46G C73A A108G | -2.82

Variant | polymerase ribozyme fitness (log ratio)
A46G C49A C56A A66C | -2.64
A46C C56A | -1.56
G45U C99A G117C | -6.81
G45U G57U A118U | -0.288
A46C U126G | -2.07
A46C C53U U112A | 0.835
G45C C62A A83G A84U | -3.77
G45C C88U | -0.355
G45U C53A C72A C89G | -1.62
A46G C80U C94U | -1.95
G45C C72U C85G | -3.66
A46C G63A U96A | -2.58
G45A A50G C62U | -0.502
G45A C70G G110A | -6.64
G45A C104U | -0.463
A46C C56G C72G U87A A100U C124A | -0.516
G45A G48C C53U C62U C102U C124G U131C | -1.71
G45U A50G C73U U133A | -1.75
G45C A50C A121C | 0.0664
A46C U87C C89G U92C | -2.75
G45C G69A | -3.75
